In article doi:10.1101/264085 (bioRxiv, 2018):

How the values were obtained:
[1] = biological target: T1, NDP52(1-126) (human, UniProt Q13137 1-126); assay: ITC
T1 sequence (looked up): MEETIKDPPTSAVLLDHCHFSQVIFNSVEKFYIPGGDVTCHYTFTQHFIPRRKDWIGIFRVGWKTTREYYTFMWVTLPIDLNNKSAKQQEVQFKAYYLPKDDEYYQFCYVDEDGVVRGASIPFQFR

[2] = biological target: the molecule itself; assay: AUC
[3] = biological target: T2, NDP52(1-126) T39E (human, UniProt Q13137 1-126, T39E); assay: ITC
T2 sequence (looked up): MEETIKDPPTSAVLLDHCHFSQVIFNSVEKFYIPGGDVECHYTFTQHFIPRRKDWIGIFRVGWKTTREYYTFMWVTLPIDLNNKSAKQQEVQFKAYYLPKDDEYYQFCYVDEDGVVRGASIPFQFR

[4] = biological target: T3, NDP52(10-126) F20Q (human, UniProt Q13137 10-126, F20Q); assay: ITC
T3 sequence (looked up): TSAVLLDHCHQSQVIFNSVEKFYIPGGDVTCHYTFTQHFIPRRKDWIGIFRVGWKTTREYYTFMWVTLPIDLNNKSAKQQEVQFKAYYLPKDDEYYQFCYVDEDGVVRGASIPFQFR

[5] = biological target: TAX1BP1(1-121) S25E (human, UniProt Q86VP1 1-121, S25E); assay: ITC
[6] = biological target: TAX1BP1(1-121) (human, UniProt Q86VP1 1-121); assay: ITC
[7] = biological target: T4, NDP52(10-126) (human, UniProt Q13137 10-126); assay: AUC
T4 sequence (looked up): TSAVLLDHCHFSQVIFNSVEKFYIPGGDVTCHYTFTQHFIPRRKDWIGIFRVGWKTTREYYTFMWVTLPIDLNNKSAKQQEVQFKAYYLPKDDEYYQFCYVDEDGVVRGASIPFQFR

[8] = biological target: T4, NDP52(10-126); assay: crystal structure

Chain of TAX1BP1(1-121) (Q86VP1 1-121): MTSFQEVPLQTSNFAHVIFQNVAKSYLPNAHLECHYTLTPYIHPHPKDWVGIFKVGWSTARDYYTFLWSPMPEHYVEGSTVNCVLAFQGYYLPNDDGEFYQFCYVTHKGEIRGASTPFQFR
Chain of TAX1BP1(1-121) S25E (Q86VP1 1-121 S25E): as the sequence (Q86VP1 1-121) above, with S25E counted along it

B1: NAP1(1-85) (domain or fragment, human, UniProt Q9H6S1 1-85, looked up)
chain: MDALVEDDICILNHEKAHKRDTVTPVSIYSGDESVASHFALVTAYEDIKKRLKDSEKENSLLKKRIRFLEEKLIARFEEETSSVG
[1]
  Kd: ~1490 nM

B2: NAP1(1-75) (domain or fragment, human, UniProt Q9H6S1 1-75, looked up)
chain: MDALVEDDICILNHEKAHKRDTVTPVSIYSGDESVASHFALVTAYEDIKKRLKDSEKENSLLKKRIRFLEEKLIA
[1]
  Kd: ~1800 nM

## ESVASHFALVTAYEDIKKRLKDSEKENSLLKKRIRFLEEKLIA (domain or fragment, human, UniProt Q9H6S1 33-75, looked up) [NAP1(33-75)]
[2]
  stoichiometry N: 2
[3]
  binding result: binds
[4]
  binding result: binds
[5]
  binding result: binds
[1]
  Kd: ~1150 nM
[6]
  Kd: ~2050 nM
[7]
  stoichiometry N: 2 NDP52(10-126) molecules per NAP1(33-75) dimer
[8]
  stoichiometry N: 1 NDP52 chains per NAP1 chain (2:2)
